Here are results for five molecules from patent US7803904 (Takeda / Millennium, dated 2010).

Assay [1] has as its target T1, human α4β7 integrin (human, UniProt P13612 34-1032; P26010 20-798).
T1 construct: whole, on cells; also called α4β7 on RPMI 8866 cells; α4β7 on HuT 78 cells
Briefly: cell adhesion, FIG. 5 legend. The protocol:
Clone pcD3huMAd4 (insert from clone 4) or pcD3huMAd20 (insert from clone 20) was transiently transfected into CHO/P cells.
Adhesion of the CHO/P transfectants to RPMI 8866 cells was blocked by preincubation with anti-α4β7 MAb ACT-1, but not by control IgG. […] To further characterize these distinct cDNAs, both clones were completely sequenced.

Assay [2] concerns the target T2, murine α4β7 integrin (mouse, UniProt Q00651 41-1039; P26011 20-806).
T2 construct: whole, on cells; Carried by the murine T cell lymphoma TK1; also called α4β7 on TK1 cells
Put plainly: cell adhesion, CHO/P transient transfectants.

For assay [3], the target named is T3, human α4β1 integrin (human, UniProt P13612 34-1032; P05556 21-798).
T3 construct: whole, on cells; Carried by Jurkat and Ramos cells (α4β1, not α4β7); also called α4β1 on Jurkat cells; α4β1 on Ramos cells
Briefly: cell adhesion assay, CHO/P transfectants.

For assay [4], the target named is T3, human α4β1 integrin. Put plainly: cell adhesion, FIG. 4B legend. The protocol: (§1) Where DATK 32 was used in a preincubation with a cell line, prior to the start of the assay, the supernatant or buffer present in the wells (containing the transfectants) was aspirated in order to obtain volume of 0.5 ml total for the adhesion assay.
(§2) Assays were fixed as described above. Plates were washed by gentle inversion in a large beaker of phosphate buffered saline (PBS), followed by inversion in a beaker of PBS with 1.5% gluteraldehyde for fixation for a minimum of 1 hour. Adhesion was assessed by counting both lymphocytes and CHO cells in a field at 20× magnification. For each assay, the number of lymphocytes bound per CHO/P cell was averaged as a minimum of four fields with standard error. Results in each case are from one of three experiments performed with similar results.
(§3) Murine MAdCAM-1 specifically binds lymphocytes expressing α4β7 (and not α4β1). […] Binding of these cell lines was compared to that of transiently transfected CHO/P cells expressing murine MAdCAM-1 and human VCAM-1.

For assay [5], the target named is T1, human α4β7 integrin. Put plainly: cell adhesion assay, CHO/P transfectants.
In assay [6] the target is T2, murine α4β7 integrin. Put plainly: cell adhesion, L1-2 stable transfectants.
In assay [7] the target is T3, human α4β1 integrin. Put plainly: functional adhesion assay, CHO/P transfectants, 4° C (FIG. 4B). The protocol: as §1, §2, §3
Assay [8] has as its target T1, human α4β7 integrin. Briefly: cell adhesion, FIG. 4A. How it is done:
as §1, §2, §3

T3 sequence (P13612 34-1032, chain 1 of 2): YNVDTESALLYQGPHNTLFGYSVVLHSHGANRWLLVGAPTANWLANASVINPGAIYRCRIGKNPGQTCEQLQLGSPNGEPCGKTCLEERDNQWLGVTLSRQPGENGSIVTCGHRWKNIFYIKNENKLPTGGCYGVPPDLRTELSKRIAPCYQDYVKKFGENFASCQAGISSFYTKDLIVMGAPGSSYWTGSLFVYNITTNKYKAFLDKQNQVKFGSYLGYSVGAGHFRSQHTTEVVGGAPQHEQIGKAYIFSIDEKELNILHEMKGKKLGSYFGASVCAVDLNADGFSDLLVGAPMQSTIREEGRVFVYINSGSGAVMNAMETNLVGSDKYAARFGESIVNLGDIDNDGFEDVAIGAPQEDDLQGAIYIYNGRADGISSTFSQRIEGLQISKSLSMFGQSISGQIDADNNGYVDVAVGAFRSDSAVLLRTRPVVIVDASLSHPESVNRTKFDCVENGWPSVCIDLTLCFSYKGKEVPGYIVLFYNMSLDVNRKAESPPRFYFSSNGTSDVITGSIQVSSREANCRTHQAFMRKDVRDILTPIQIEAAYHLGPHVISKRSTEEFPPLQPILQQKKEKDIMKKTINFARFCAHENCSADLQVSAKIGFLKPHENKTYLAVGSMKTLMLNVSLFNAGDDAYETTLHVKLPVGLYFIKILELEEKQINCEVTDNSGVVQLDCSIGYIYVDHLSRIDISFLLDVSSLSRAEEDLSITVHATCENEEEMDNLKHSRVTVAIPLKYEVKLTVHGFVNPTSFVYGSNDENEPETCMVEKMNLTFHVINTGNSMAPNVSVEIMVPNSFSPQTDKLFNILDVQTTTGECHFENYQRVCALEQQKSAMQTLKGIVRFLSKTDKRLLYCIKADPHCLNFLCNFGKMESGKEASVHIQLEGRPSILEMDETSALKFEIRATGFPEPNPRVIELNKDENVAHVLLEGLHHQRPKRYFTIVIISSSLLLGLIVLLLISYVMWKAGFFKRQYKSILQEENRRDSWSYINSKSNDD
T3 sequence (P05556 21-798, chain 2 of 2): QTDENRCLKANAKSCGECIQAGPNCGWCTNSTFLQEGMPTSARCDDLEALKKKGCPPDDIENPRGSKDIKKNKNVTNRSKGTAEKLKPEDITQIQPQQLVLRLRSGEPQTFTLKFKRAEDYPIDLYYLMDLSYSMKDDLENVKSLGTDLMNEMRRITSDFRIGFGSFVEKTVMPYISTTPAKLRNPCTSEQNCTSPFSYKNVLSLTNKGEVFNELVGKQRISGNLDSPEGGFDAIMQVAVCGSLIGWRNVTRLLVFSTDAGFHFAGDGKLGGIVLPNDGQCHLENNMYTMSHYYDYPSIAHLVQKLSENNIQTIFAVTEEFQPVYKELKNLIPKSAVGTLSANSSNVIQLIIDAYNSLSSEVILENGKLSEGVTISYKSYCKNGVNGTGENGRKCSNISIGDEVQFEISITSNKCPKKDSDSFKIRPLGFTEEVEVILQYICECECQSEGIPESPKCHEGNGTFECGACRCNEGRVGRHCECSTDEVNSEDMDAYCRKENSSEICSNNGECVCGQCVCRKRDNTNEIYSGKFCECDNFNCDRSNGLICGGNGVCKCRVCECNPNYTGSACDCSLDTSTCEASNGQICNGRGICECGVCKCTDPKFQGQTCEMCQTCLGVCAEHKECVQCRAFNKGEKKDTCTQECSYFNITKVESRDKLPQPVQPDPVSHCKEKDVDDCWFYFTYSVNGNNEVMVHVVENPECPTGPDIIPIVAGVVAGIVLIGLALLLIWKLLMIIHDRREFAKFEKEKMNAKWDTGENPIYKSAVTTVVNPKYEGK
T1 sequence (P13612 34-1032, chain 1 of 2): as the sequence (P13612 34-1032, chain 1 of 2) above
T1 sequence (P26010 20-798, chain 2 of 2): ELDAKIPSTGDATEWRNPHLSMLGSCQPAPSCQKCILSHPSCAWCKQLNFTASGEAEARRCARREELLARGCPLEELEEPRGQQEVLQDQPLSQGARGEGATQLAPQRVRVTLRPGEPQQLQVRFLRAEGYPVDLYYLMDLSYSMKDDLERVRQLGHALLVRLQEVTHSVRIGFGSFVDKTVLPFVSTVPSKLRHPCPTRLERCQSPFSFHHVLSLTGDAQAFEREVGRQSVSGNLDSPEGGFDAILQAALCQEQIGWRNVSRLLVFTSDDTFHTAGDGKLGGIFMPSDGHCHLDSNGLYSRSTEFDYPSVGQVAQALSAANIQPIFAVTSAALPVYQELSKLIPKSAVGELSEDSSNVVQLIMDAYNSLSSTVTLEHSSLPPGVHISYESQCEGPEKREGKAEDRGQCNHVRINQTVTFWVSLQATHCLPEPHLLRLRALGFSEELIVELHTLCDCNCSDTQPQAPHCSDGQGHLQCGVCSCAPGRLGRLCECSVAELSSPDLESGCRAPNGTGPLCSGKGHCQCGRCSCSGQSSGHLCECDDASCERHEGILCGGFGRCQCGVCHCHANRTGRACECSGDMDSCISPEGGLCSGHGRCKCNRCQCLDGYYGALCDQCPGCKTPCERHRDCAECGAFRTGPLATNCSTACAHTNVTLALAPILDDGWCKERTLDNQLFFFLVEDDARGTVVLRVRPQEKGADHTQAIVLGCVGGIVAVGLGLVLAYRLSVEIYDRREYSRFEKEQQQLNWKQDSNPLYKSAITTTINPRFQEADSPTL
T2 sequence (Q00651 41-1039, chain 1 of 2): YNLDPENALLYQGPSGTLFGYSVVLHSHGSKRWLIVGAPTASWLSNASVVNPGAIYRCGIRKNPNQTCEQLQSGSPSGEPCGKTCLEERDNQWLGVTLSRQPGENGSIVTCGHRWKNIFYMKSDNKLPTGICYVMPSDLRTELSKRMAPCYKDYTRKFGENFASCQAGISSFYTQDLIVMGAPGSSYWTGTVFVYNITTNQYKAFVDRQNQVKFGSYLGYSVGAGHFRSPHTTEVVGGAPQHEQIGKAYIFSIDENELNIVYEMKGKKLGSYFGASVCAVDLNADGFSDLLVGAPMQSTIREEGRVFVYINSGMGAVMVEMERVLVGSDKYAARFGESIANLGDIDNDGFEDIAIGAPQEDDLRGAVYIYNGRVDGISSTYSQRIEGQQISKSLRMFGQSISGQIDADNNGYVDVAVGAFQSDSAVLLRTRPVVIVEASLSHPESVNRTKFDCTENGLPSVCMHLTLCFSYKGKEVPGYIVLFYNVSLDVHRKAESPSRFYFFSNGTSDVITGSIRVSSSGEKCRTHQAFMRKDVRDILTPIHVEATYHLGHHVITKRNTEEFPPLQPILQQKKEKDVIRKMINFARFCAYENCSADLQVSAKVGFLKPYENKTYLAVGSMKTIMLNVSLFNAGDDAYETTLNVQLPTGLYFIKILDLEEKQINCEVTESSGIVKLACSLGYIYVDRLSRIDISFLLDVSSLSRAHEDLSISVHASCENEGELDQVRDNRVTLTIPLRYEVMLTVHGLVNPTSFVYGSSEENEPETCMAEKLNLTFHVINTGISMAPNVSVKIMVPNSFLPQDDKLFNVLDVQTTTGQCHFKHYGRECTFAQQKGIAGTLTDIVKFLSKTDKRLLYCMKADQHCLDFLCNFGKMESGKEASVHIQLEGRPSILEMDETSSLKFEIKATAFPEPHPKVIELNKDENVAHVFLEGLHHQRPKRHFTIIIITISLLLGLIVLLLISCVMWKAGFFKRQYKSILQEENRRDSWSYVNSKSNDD
T2 sequence (P26011 20-806, chain 2 of 2): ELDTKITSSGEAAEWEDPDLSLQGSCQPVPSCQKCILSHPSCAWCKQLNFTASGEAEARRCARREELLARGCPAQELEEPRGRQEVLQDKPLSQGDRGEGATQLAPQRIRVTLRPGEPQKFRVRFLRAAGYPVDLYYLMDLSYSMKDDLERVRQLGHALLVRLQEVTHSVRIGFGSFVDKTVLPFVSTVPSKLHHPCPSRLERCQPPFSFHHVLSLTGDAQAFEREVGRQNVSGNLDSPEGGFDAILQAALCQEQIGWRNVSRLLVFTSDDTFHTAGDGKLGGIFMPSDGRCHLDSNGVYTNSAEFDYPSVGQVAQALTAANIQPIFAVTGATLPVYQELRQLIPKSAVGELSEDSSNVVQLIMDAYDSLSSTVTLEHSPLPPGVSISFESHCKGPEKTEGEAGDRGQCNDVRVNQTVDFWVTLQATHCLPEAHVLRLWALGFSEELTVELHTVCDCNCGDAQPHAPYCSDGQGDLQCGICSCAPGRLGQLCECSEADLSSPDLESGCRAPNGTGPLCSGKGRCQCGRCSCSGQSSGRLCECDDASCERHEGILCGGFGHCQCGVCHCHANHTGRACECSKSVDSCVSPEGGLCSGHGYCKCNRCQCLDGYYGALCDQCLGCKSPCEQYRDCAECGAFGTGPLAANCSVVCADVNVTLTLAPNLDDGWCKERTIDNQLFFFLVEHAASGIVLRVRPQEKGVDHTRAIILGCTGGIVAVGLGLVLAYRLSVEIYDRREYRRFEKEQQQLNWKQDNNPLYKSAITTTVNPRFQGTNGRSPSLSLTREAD

B1: human MAdCAM-1 (cDNA clone 20) (receptor)
chain: QSLQVKPLQVEPPEPVVAVALGASRQLTCRLACADRGASVQWRGLDTSLGAVQSDTGRSVLTVRNASLSAAGTRVCVGSCGGRTFQHTVQLLVYAFPDQLTVSPAALVPGDPEVACTAHKVTPVDPNALSFSLLVGGQELEGAQALGPEVQEEEEEPQGDEDVLFRVTERWRLPPLGTPVPPALYCQATMRLPGLELSHRQAIPVLHSPTSPEPPDTTSPESPDTTSPESPDTTSQEPPDTTSPEPPDKTSPEPAPQQGSTHTPRSPGSTRTRRPEISQAGPTQGEVIPTGSSKPAGDQLPAALWTSSAVLGLLLLALPTYHLWKRCRHLAEDDTHPPASLRLLPQVSAWAGLRGTGQVGISPS
notes: Isoform with a shorter mucin domain, expressed on CHO/P cells; also called pcD3huMAd20
For the molecule B1, the binding result in the assay with human α4β7 integrin [1] and in the assay with murine α4β7 integrin [2] was “binds” each time.

B2: macaque MAdCAM-1 (cDNA clone 31D) (receptor)
chain: QSLQVKPLQVEPPEPVVAVALGASRQLTCRLDCADRGATVQWRGLDTSLGAVQSDAGRSVLTVRNASLSAAGTRVCVGSCGGRTFQHTVRLLVYAFPDQLTISPAALVPGDPEVACTAHKVTPVDPNALSFSLLLGDQELEGAQALGPEVEEEEEEPQEEEDVLFRVTERWRLPTLATPVLPALYCQATMRLPGLELSHRQAIPVLHGPTSREPPDTTSPEPRAATSPETTPQQGSTHSPRSPGSTRTCRPEISQAGPTQGEVIPTGSSKPTGDQLPAALWTSSAVLGLLLLALPTYHLWKRCRHLAEDGAHPPASLSSQPFPL
notes: Expressed on CHO/P or L1-2 cells; also called pcD3pMAd; pCD3PMad
For the molecule B2, the binding result in the assay with human α4β1 integrin [3] is reported as “no binding”.

B3: seven domain human VCAM-1 (receptor, UniProt P19320 25-739, looked up)
chain: FKIETTPESRYLAQIGDSVSLTCSTTGCESPFFSWRTQIDSPLNGKVTNEGTTSTLTMNPVSFGNEHSYLCTATCESRKLEKGIQVEIYSFPKDPEIHLSGPLEAGKPITVKCSVADVYPFDRLEIDLLKGDHLMKSQEFLEDADRKSLETKSLEVTFTPVIEDIGKVLVCRAKLHIDEMDSVPTVRQAVKELQVYISPKNTVISVNPSTKLQEGGSVTMTCSSEGLPAPEIFWSKKLDNGNLQHLSGNATLTLIAMRMEDSGIYVCEGVNLIGKNRKEVELIVQEKPFTVEISPGPRIAAQIGDSVMLTCSVMGCESPSFSWRTQIDSPLSGKVRSEGTNSTLTLSPVSFENEHSYLCTVTCGHKKLEKGIQVELYSFPRDPEIEMSGGLVNGSSVTVSCKVPSVYPLDRLEIELLKGETILENIEFLEDTDMKSLENKSLEMTFIPTIEDTGKALVCQAKLHIDDMEFEPKQRQSTQTLYVNVAPRDTTVLVSPSSILEEGSSVNMTCLSQGFPAPKILWSRQLPNGELQPLSENATLTLISTKMEDSGVYLCEGINQAGRSRKEVELIIQVTPKDIKLTAFPSESVKEGDTVIISCTCGNVPETWIILKKKAETGDTVLKSIDGAYTIRKAQLKDAGVYECESKNKVGSQLRSLTLDVQGRENNKDYFSPELLVLYFASSLIIPAIGMIIYFARKANMKGSYSLVEAQKSKV
notes: whole, on cells; Transiently expressed on CHO/P cells; also called pCD3VCAM
For the molecule B3, the values for the binding result with human α4β1 integrin [4] and in the assay with human α4β7 integrin [5] were “binds” and “no binding”, respectively.

B4: human MAdCAM-1 (cDNA clone 4) (receptor)
chain: QSLQVKPLQVEPPEPVVAVALGASRQLTCRLACADRGASVQWRGLDTSLGAVQSDTGRSVLTVRNASLSAAGTRVCVGSCGGRTFQHTVQLLVYAFPDQLTVSPAALVPGDPEVACTAHKVTPVDPNALSFSLLVGGQELEGAQALGPEVQEEEEEPQGDEDVLFRVTERWRLPPLGTPVPPALYCQATMRLPGLELSHRQAIPVLHSPTSPEPPDTTSPEPPNTTSPESPDTTSPESPDTTSQEPPDTTSQEPPDTTSQEPPDTTSPEPPDKTSPEPAPQQGSTHTPRSPGSTRTRRPEISQAGPTQGEVIPTGSSKPAGDQLPAALWTSSAVLGLLLLALPTYHLWKRCRHLAEDDTHPPASLRLLPQVSAWAGLRGTGQVGISPS
notes: also called pcD3huMAd4; pCDhuMAd4
Take B4: the binding result with human α4β7 integrin [1] is given as “binds”; with murine α4β7 integrin [6], “binds”; in the assay with human α4β1 integrin [7], “no binding”.

B5: murine MAdCAM-1 (receptor, mouse, UniProt Q61826 22-405, looked up)
chain: QSFQVNPPESEVAVAMGTSLQITCSMSCDEGVARVHWRGLDTSLGSVQTLPGSSILSVRGMLSDTGTPVCVGSCGSRSFQHSVKILVYAFPDQLVVSPEFLVPGQDQVVSCTAHNIWPADPNSLSFALLLGEQRLEGAQALEPEQEEEIQEAEGTPLFRMTQRWRLPSLGTPAPPALHCQVTMQLPKLVLTHRKEIPVLQSQTSPKPPNTTSAEPYILTSSSTAEAVSTGLNITTLPSAPPYPKLSPRTLSSEGPCRPKIHQDLEAGWELLCEASCGPGVTVRWTLAPGDLATYHKREAGAQAWLSVLPPGPMVEGWFQCRQDPGGEVTNLYVPGQVTPNSSSTVVLWIGSLVLGLLALVFLAYRLWKCYRPGPRPDTSSCTHL
notes: whole, on cells; Transiently expressed on CHO/P cells; also called pCDMAD-7
Regarding B5, the results for the binding result with human α4β7 integrin [8] and in the assay with human α4β1 integrin [7] were “binds” and “no binding”, respectively.
